Tests used:
Assay in all cases: IEDB peptide-MHC binding, cellular MHC/competitive/radioactivity; ≥ and ≤ were set here for values at or beyond the usual limits of such assays
[1] = target: HLA-A*02:05
[2] = target: HLA-A*02:02
[3] = target: HLA-A*02:01
[4] = source organism: Human immunodeficiency virus 1
[5] = source organism: Human immunodeficiency virus type 1 BH10
[6] = source organism: Hepatitis B virus subtype adw2

Sequence: DPKVKQWPL
- IC50 [1, 4]: 10000 nM
- IC50 [2, 4]: 10000 nM

Sequence: EADPTGHSY
- IC50 ([3]; source organism: Homo sapiens): 10000 nM
- IC50 ([1]; source organism: Homo sapiens): 10000 nM
- IC50 ([2]; source organism: Homo sapiens): 10000 nM

Sequence: ILKEPVHGV
- IC50 [1, 5]: 9.4 nM
- IC50 [2, 5]: 150 nM

Sequence: IVGAETFYV
- IC50 ([3]; source organism: HIV-1 M:B_MN): 3.5 nM
- IC50 ([1]; source organism: HIV-1 M:B_MN): 6.5 nM
- IC50 ([2]; source organism: HIV-1 M:B_MN): 62 nM

Sequence: LLGRNSFEV
- IC50 ([1]; source organism: Homo sapiens): 19 nM
- IC50 ([2]; source organism: Homo sapiens): 87 nM

Sequence: LLPIFFCLWV
- IC50 [1, 6]: 10000 nM

Sequence: STLPETTVVRR
- IC50 [3, 6]: 1310 nM
- IC50 [1, 6]: 10000 nM
- IC50 [2, 6]: 10000 nM

Sequence: WLSLLVPFV
- IC50 [1, 6]: 4 nM
- IC50 [2, 6]: 34 nM

Sequence: YLHTLWKAGI
- IC50 [1, 6]: 57 nM
- IC50 [2, 6]: 53 nM
